In publication doi:10.1101/2022.10.07.511266:

Biological target: integrin αIIbβ3 (human) (UniProt P05106)
Experiment: epifluorescence microscopy of co-clustering on giant unilamellar vesicles

stoichiometry N (talin:integrin) | stoichiometry N (scale: talin:integrin) | stoichiometry N (kindlin:integrin) | stoichiometry N (scale: kindlin:integrin) | Substance
2 | 3 | – | – | eGFP-talin F2-F3 (domain or fragment)
– | – | 3 | 4 | mCherry-kindlin-2 (from UniProt Q96AC1 1-680) (natural protein)
